Test results taken from the supplement of paper PMC10567573.

B1: ATL3 (parent)
chain: EKALASILLQDHIRDLDVVVVSVA
B2: PI4K2A (parent)
chain: FVKDPQGRIIAVFKPKNEEPYGHL

Variants of: B1
Experiment: protein stability index of a GFP-peptide fusion (GPS, HEK-293T) (PSI 1-6); higher = more stable
Conditions: c terminus: a fixed tail appended
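Further: lentivirally expressed fusions sorted by FACS into six bins by GFP to DsRed ratio, PSI derived from sequencing read proportions per bin multiplied by bin number.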

| Variant | protein stability index |
| --- | --- |
| EKALAKILLQDHIRDLDVVVVSVA [S6K] | 2.18 |
| EKALALILLQDHIRDLDVVVVSVA [S6L] | 3.06 |
| EKALAPILLQDHIRDLDVVVVSVA [S6P] | 1.93 |
| HKALASILLQDHIRDLDVVVVSVA [E1H] | 2.05 |
| IKALASILLQDHIRDLDVVVVSVA [E1I] | 2.5 |
| RKALASILLQDHIRDLDVVVVSVA [E1R] | 2.24 |
| GKALASILLQDHIRDLDVVVVSVA [E1G] | 3.59 |
| CKALASILLQDHIRDLDVVVVSVA [E1C] | 3.34 |
| NKALASILLQDHIRDLDVVVVSVA [E1N] | 2.93 |
| EKADASILLQDHIRDLDVVVVSVA [L4D] | 2.61 |
| EKAYASILLQDHIRDLDVVVVSVA [L4Y] | 1.83 |
| EKAVASILLQDHIRDLDVVVVSVA [L4V] | 3.38 |
| EKAEASILLQDHIRDLDVVVVSVA [L4E] | 1.39 |
| EKAAASILLQDHIRDLDVVVVSVA [L4A] | 1.45 |
| EKAHASILLQDHIRDLDVVVVSVA [L4H] | 1.05 |
| EKAPASILLQDHIRDLDVVVVSVA [L4P] | 1.25 |
| EKAQASILLQDHIRDLDVVVVSVA [L4Q] | 1.69 |
| EKAKASILLQDHIRDLDVVVVSVA [L4K] | 3.04 |
| EKATASILLQDHIRDLDVVVVSVA [L4T] | 1.37 |
| EKACASILLQDHIRDLDVVVVSVA [L4C] | 1.47 |
| EYALASILLQDHIRDLDVVVVSVA [K2Y] | 2.98 |

| Variant | protein stability index |
| --- | --- |
| EDALASILLQDHIRDLDVVVVSVA [K2D] | 2.78 |
| ERALASILLQDHIRDLDVVVVSVA [K2R] | 1.3 |
| EKALESILLQDHIRDLDVVVVSVA [A5E] | 2.29 |
| EKALNSILLQDHIRDLDVVVVSVA [A5N] | 3.63 |
| EKALQSILLQDHIRDLDVVVVSVA [A5Q] | 3.29 |
| EKALVSILLQDHIRDLDVVVVSVA [A5V] | 2.9 |
| EKALTSILLQDHIRDLDVVVVSVA [A5T] | 2.26 |
| EKALHSILLQDHIRDLDVVVVSVA [A5H] | 1.35 |
| EKALKSILLQDHIRDLDVVVVSVA [A5K] | 1.74 |
| EKALWSILLQDHIRDLDVVVVSVA [A5W] | 2.08 |
| EKALASLLLQDHIRDLDVVVVSVA [I7L] | 1.97 |
| EKALASALLQDHIRDLDVVVVSVA [I7A] | 2.62 |
| EKALASNLLQDHIRDLDVVVVSVA [I7N] | 1.31 |
| EKALASKLLQDHIRDLDVVVVSVA [I7K] | 2.32 |
| EKALASHLLQDHIRDLDVVVVSVA [I7H] | 2.31 |
| EKALASDLLQDHIRDLDVVVVSVA [I7D] | 2.51 |
| EKALASELLQDHIRDLDVVVVSVA [I7E] | 2.37 |
| EKALASPLLQDHIRDLDVVVVSVA [I7P] | 3.2 |
| EKYLASILLQDHIRDLDVVVVSVA [A3Y] | 1.09 |
| EKELASILLQDHIRDLDVVVVSVA [A3E] | 1.51 |

Variants of: B2
Experiment: as above
Conditions: c terminus: a fixed tail appended

| Variant | protein stability index |
| --- | --- |
| FVKDPQGRIIAVFKPKNEEPYGML [H23M] | 1.87 |
| FVKDPQGRIIAVFKPKNEEPYGAL [H23A] | 1.65 |
| FVKDPQGRIIAVFKPKNEEPYGFL [H23F] | 1.27 |
| FVKDPQGRIIAVFKPKNEEPYGQL [H23Q] | 1.56 |
| FVKDPQGRIIAVFKPKNEEPYGLL [H23L] | 2.41 |
| FVKDPQGRIIAVFKPKNEEPYGNL [H23N] | 1.99 |
| FVKDPQGRIIAVFKPKNEEPYGRL [H23R] | 1.79 |
| FVKDPQGRIIAVFKPKNEEPYGVL [H23V] | 2.28 |
| FVKDPQGRIIAVFKPKNEEPYGIL [H23I] | 2.38 |
| FVKDPQGRIIAVFKPKNEEPYGKL [H23K] | 1.61 |
| FVKDPQGRIIAVFKPKNEEPYGDL [H23D] | 2.39 |
| FVKDPQGRIIAVFKPKNEEPYGPL [H23P] | 2.47 |
| FVKDPQGRIIAVFKPKNEEPYGEL [H23E] | 1.62 |
| FVKDPQGRIIAVFKPKNEEPYGWL [H23W] | 1.83 |
| FVKDPQGRIIAVFKPKNEEPYGGL [H23G] | 2.6 |
| FVKDPQGRIIAVFKPKNEEPYGYL [H23Y] | 1.78 |
| FVKDPQGRIIAVFKPKNEEPYGTL [H23T] | 1.81 |
| FVKDPQGRIIAVFKPKNEEPYGCL [H23C] | 1.94 |
| FVKDPQGRIIAVFKPKNEEPYGSL [H23S] | 1.36 |
| FVKDPQGRIIAVFKPKNEEPYGHT [L24T] | 2.22 |
| FVKDPQGRIIAVFKPKNEEPYGHA [L24A] | 2.27 |
| FVKDPQGRIIAVFKPKNEEPYGHI [L24I] | 1.92 |
| FVKDPQGRIIAVFKPKNEEPYGHD [L24D] | 2.03 |
| FVKDPQGRIIAVFKPKNEEPYGHQ [L24Q] | 2.03 |
| FVKDPQGRIIAVFKPKNEEPYGHV [L24V] | 2.19 |
| FVKDPQGRIIAVFKPKNEEPYGHF [L24F] | 1.53 |
| FVKDPQGRIIAVFKPKNEEPYGHS [L24S] | 2.1 |

| Variant | protein stability index |
| --- | --- |
| FVKDPQGRIIAVFKPKNEEPYGHW [L24W] | 1.74 |
| FVKDPQGRIIAVFKPKNEEPYGHG [L24G] | 1.48 |
| FVKDPQGRIIAVFKPKNEEPYGHC [L24C] | 2.24 |
| FVKDPQGRIIAVFKPKNEEPYGHH [L24H] | 1.76 |
| FVKDPQGRIIAVFKPKNEEPYGHY [L24Y] | 1.41 |
| FVKDPQGRIIAVFKPKNEEPYGHR [L24R] | 1.42 |
| FVKDPQGRIIAVFKPKNEEPYGHP [L24P] | 2.33 |
| FVKDPQGRIIAVFKPKNEEPYGHE [L24E] | 1.04 |
| FVKDPQGRIIAVFKPKNEEPYGHN [L24N] | 1.63 |
| FVKDPQGRIIAVFKPKNEEPYGHK [L24K] | 2.04 |
| FVKDPQGRIIAVFKPKNEEPYGHM [L24M] | 1.92 |
| FVKDPQGRIIAVFKPKNEDPYGHL [E19D] | 2.16 |
| FVKDPQGRIIAVFKPKNERPYGHL [E19R] | 1.34 |
| FVKDPQGRIIAVFKPKNEPPYGHL [E19P] | 1.78 |
| FVKDPQGRIIAVFKPKNEGPYGHL [E19G] | 1.67 |
| FVKDPQGRIIAVFKPKNESPYGHL [E19S] | 1.71 |
| FVKDPQGRIIAVFKPKNEKPYGHL [E19K] | 2.58 |
| FVKDPQGRIIAVFKPKNEAPYGHL [E19A] | 1.58 |
| FVKDPQGRIIAVFKPKNEMPYGHL [E19M] | 1.81 |
| FVKDPQGRIIAVFKPKNECPYGHL [E19C] | 2.52 |
| FVKDPQGRIIAVFKPKNEWPYGHL [E19W] | 2.91 |
| FVKDPQGRIIAVFKPKNEFPYGHL [E19F] | 1.52 |
| FVKDPQGRIIAVFKPKNELPYGHL [E19L] | 2.34 |
| FVKDPQGRIIAVFKPKNEHPYGHL [E19H] | 2.1 |
| FVKDPQGRIIAVFKPKNEIPYGHL [E19I] | 2.62 |
| FVKDPQGRIIAVFKPKNEQPYGHL [E19Q] | 2.03 |
